Where a chain is given by its changes, count along the chain named. In names and notes the source's numbering stands.
B1: SAMHD1 (113-626) H206R/D207N/R366C (domain or fragment, UniProt Q9Y3Z3 113-626, looked up)
chain: DTMKVINDPIHGHIELHPLLVRIIDTPQFQRLRYIKQLGGGYYVFPGASHNRFEHSLGVGYLAGCLVHALGEKQPELQISERDVLCVQIAGLCRNLGHGPFSHMFDGRFIPLARPEVKWTHEQGSVMMFEHLINSNGIKPVMEQYGLIPEEDICFIKEQIVGPLESPVEDSLWPYKGRPENKSFLYEIVSNKRNGIDVDKWDYFARDCHHLGIQNNFDYKRFIKFARVCEVDNELRICARDKEVGNLYDMFHTCNSLHRRAYQHKVGNIIDTMITDAFLKADDYIEITGAGGKKYRISTAIDDMEAYTKLTDNIFLEILYSTDPKLKDAREILKQIEYRNLFKYVGETQPTGQIKIKREDYESLPKEVASAKPKVLLDVKLKAEDFIVDVINMDYGMQEKNPIDHVSFYCKTAPNRAIRITKNQVSQLLPEKFAEQLIRVYCKKVDRKSLYAARQYFVQWCADRNFTKPQDGDVIAPLITPQKKEWNDSTSVQNPTRLREASKSRVQLFKDDPM
notes: Crystallised with 4 mM dGTP; also called R366C (crystal construct); SAMHD1 HD/RN R366C
B2: SAMHD1 (113-626) H206R/D207N/R366H (domain or fragment, UniProt Q9Y3Z3 113-626, looked up)
chain: B1 chain with C254H
notes: Crystallised with 4 mM dGTP; also called R366H (crystal construct); SAMHD1 HD/RN R366H

Molecular target: the molecule itself
Test: crystal structure; HD domain (113-626) H206R/D207N constructs, 4 mg/ml, with 4 mM dGTP; microbatch under oil; 100 mM succinic acid-phosphate-glycine buffer, 30% PEG1500; tetramer

Row | Protein | stoichiometry N
1 | B1 | 4
2 | B2 | 4
